Tests used:
ZDF fa/fa rats [1] = assay: 21-day ZDF fa/fa study: fasting blood glucose; assay type: in vivo, rat; settings: for fasting blood glucose level: day 21
Procedure: (§1) Animals. Male ZDF fa/fa rats were obtained from CRL (Kingston, N.Y.). Upon arrival, rats were seven weeks of age. The rats were housed individually per cage in a room with a photo cycle of 12 hours of light and 12 hours of dark and an ambient temperature of 70-72° F. and fed on regular rodent diet and water ad libitum. At the age of eleven weeks, rats were divided into six groups (Table 5) of eight rats per group based on fasting blood glucose levels. A sub-group of four rats per group was maintained in parallel to the main groups and was dosed similarly for twenty-one days for a hyperinsulinemic-euglycemic clamp study. […]
(§2) An oral glucose tolerance test (OGTT) was performed on Day 0, 7, 14 and 21 for each group of the study. Plasma samples were collected at each time point during OGTT to also measure insulin levels. Body weight, food and water intake were measured twice a week. Blood pressure and heart rates were monitored on Day 0, 7, 14 and 21 using a non-invasive tail cuff method (with five readings per rat taken and then averaged). Fasting serum samples were collected on Day 0, 7, 14 and 21 before OGTT for determination of triglyceride and total cholesterol level. Urine samples were collected on Day 7 and 14 for the determination of glycosuria. Glycated (Glycosylated) hemoglobin (HbA1c) was measured at the end of the study. Assay kits for these studies were as presented in Table 6, and were used according to the suppliers' instructions.
Fasting blood glucose levels were measured on Day 0, 7, 14 and 21.
The mean change in fasting blood glucose (mg/dL), serum cholesterol (mg/dL) and systolic blood pressure (mm Hg) from baseline (Day 0) to Day 21 was compared between the high-dose (5F12G1, 0.2 mg/kg) and negative control (MG2b-57, 0.2 mg/kg) groups using an analysis of covariance to adjust for baseline levels. The mean HbA1c percentage in high-dose (5F12G1, 0.2 mg/kg) rats was compared to the mean HbA1c percentage for negative control (MG2b-57, 0.2 mg/kg) rats using an unequal-variance, independent two-sample t-test. A significance level of a=0.05 was used for all tests, and all analyses were conducted using SAS statistical software (vs. 9.2, Cary, N.C., U.S.A.).

ZDF fa/fa rats [2] = assay: 21-day ZDF fa/fa study: glycated hemoglobin HbA1c; assay type: in vivo, rat; settings: day 21
Procedure: as §1, §2
The mean change in fasting blood glucose (mg/dL), serum cholesterol (mg/dL) and systolic blood pressure (mm Hg) from baseline ([…]) and negative control (MG2b-57, 0.2 mg/kg) groups using an analysis of covariance to adjust for baseline levels. […] A significance level of a=0.05 was used for all tests, and all analyses were conducted using SAS statistical software (vs. 9.2, Cary, N.C., U.S.A.).

B1: 5F12G1: murine monoclonal anti-BKB2R antibody (IgG2b,κ), VH comprising SEQ ID NO:1, VL comprising SEQ ID NO:2 (antibody, listed as Mus musculus, V domains shown)
VH: EVKLEESGGGLVQPGGSMKLSCVVSGFTFSDYWMSWVRHSPEMGLEWVAEIRLKSDNYATHYAESVKGRFTISRDDSKSRLYLQINSLRGEDTGIYYCTRDYYAMEYWGQGTSVTVSS
VL: DVVMTQTPLSLPVSLGDQASISCRSSQTIVHSNGKTYLEWYLQKPGQSPKLLIYKVSNRFSGVPDRFSGSGSGTEFTLKISRVETEDLGVYYCFQASHVPYTFGGGTKLEIK
increase of fasting blood glucose from baseline (ZDF fa/fa rats [1]; 0.2 mg/kg s.c. every 3 days, Day 0 to Day 21): 33.1 ± 19.7 mg/dL | fasting blood glucose level (ZDF fa/fa rats [1]; 0.2 mg/kg s.c. every 3 days, baseline 117.6+/−14.2 (5F12G1), 116.5+/−25.8 (MG2b-57)): approximately 150.8+/−56.5 mg/dl | fasting blood glucose level (ZDF fa/fa rats [1]; second of three values given respectively (0.04 mg/kg s.c. every 3 days)): ~163 ± 21 mg/dL | fasting blood glucose level (ZDF fa/fa rats [1]; third of three values given respectively (0.008 mg/kg s.c. every 3 days)): ~190 ± 40 mg/dL | percent glycosylated hemoglobin A1c (HbA1c) (ZDF fa/fa rats [2]; 0.2 mg/kg s.c. every 3 days (high dose)): 6.3+/−0.5% | difference in percent HbA1c between the high dose and negative control animals (ZDF fa/fa rats [2]; 0.2 mg/kg s.c. every 3 days vs MG2b-57 0.2 mg/kg): −2.58+/−0.85%
